# From US20140086913A1 (Gilead, published 2014)
# Where two headings read alike, the source gives them in different places.
# Experiments:
# [1] = biological target: DDR1 with a ProLink Tag (PK) in engineered U20S cells (DiscoveRx), Q08345; test: cell-based or functional assay
# [2] = biological target: DDR1 endogenously expressed on human cancer cell lines (T47D, HCT-116, A431) (human) (UniProt Q08345); test: cell-based or functional assay
# [3] = biological target: DDR1 endogenously expressed on human cancer cell lines (T47D, HCT-116, A431) (human) (UniProt Q08345); test: flow cytometry, T47D cells
# [4] = biological target: DDR1 endogenously expressed on human cancer cell lines (T47D, HCT-116, A431) (human) (UniProt Q08345); test: flow cytometry, HCT116 cells
# [5] = biological target: T1, human DDR2 stably expressed on HEK293 cells (human) (UniProt Q16832); test: flow cytometry, HEK293/hDDR2
# T1 sequence (looked up): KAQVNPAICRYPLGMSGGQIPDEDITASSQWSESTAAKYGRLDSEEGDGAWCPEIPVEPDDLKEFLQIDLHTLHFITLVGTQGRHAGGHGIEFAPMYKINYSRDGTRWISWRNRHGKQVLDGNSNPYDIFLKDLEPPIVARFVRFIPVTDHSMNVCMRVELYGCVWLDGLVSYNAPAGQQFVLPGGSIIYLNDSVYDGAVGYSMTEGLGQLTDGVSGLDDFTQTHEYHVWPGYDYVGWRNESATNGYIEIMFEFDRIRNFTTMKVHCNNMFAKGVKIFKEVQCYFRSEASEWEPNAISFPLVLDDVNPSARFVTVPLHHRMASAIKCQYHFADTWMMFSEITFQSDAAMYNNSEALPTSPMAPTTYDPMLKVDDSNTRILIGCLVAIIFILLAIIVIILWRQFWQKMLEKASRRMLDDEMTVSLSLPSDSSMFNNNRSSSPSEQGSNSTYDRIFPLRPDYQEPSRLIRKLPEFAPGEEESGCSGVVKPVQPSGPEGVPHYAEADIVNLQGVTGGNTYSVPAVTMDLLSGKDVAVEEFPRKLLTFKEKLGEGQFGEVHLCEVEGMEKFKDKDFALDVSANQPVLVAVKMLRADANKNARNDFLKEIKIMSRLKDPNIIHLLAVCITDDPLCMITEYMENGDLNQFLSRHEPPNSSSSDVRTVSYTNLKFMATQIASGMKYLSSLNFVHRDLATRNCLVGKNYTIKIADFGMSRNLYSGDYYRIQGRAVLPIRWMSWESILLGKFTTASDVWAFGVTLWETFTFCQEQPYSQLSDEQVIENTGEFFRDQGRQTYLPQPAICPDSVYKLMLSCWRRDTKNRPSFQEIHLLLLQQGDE
# [6] = biological target: T2, DDR1ECD-Fc (R&D Systems, Catalog #2396-DR) (human, UniProt Q08345 21-416); test: ELISA, coated antigen, apparent KD
# T2 construct: range 21-416; construct as described for the bought immunogen; also called human ECD-DDR1-Fc; Fc-ECD-DR1; not shown: human IgG1, Pro100-Lys330
# Method: (§1) In this study, ELISA was used to determine the affinity of murine anti-DDR1 monoclonal antibodies to the extracellular domain (ECD) of either human or murine DDR1. A 96-well MaxiSorb ELISA plates (Nunc) were coated with 2 μg/mL of one of three purified recombinant tagged proteins: human ECD-DDR1-His protein, human ECD-DDR1-Fc, or mouse ECD-DDR1-Fc overnight at 4° C. The next day, the plates were blocked with 5% bovine serum albumin (BSA, Jackson Immunoresearch) prior to the addition of serially diluted anti-DDR1 monoclonal antibodies. Antibodies were incubated for 1 hr at room temperature. The binding of antibody to the antigen was detected by incubating samples with anti-mouse IgG-HRP (horse radish peroxidase) secondary detection antibody (Jackson Immunoresearch) for 1 hr. After a washing step, 3,3′,5,5″-tetramethylbenzidine (TMB) reagent was added for HRP to produce a colorimetric signal. The reaction was stopped by addition of 1M hydrochloric acid after 2 minutes and measured for absorbance (optical density, OD) at 450λ on a Molecular Devices plate reader. The OD values were plotted against antibody concentration and fitted using a using 4-parameter logistic equation in SoftMax software (Molecular Devices). The apparent affinity constant (KD) was taken from the C-parameter of the equation (y=(A−D)/(1+(x/C)̂B)+D). The apparent affinity constants were summarized (in some cases shown as average values) in Table 10 below. Lower value indicates higher binding affinity of the antibody to the antigen.
# [7] = biological target: T3, human ECD-DDR1-His protein (human, UniProt Q08345 21-416); test: ELISA, coated antigen, apparent KD
# T3 construct: also called huDDR1-ECD-His; DDR1ECD-6Xhis; not shown: His tag
# Method: as §1
# mouse ECD-DDR1-Fc = biological target: T4, mouse ECD-DDR1-Fc (mouse; human, UniProt Q03146 22-414); test: ELISA, coated antigen, apparent KD
# T4 construct: also called mouse DDR1-ECD; wild-type mouse DDR1-ECD; not shown: human IgG1 Fc of the vector pFuse-hIgG1-Fc1 (Invivogen)
# T4 sequence: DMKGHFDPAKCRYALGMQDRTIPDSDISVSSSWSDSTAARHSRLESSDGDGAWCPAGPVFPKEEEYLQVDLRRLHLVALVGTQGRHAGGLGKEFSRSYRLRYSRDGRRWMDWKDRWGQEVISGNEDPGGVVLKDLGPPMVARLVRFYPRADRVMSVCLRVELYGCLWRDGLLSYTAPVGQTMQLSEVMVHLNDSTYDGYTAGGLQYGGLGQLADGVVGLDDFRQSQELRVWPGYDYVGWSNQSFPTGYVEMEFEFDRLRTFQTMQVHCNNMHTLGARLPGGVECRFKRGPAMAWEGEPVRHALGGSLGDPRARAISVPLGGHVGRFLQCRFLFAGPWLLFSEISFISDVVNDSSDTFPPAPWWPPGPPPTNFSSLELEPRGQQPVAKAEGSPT
# Method: as §1
# [8] = biological target: human DDR1 (isoform B) stably expressed on HEK293 cells (human) (UniProt Q08345); test: flow cytometry, HEK293/hDDR1
# human DDR1 (isoform B) stably expressed on HEK293 cells (human), sequence (Q08345 19-913): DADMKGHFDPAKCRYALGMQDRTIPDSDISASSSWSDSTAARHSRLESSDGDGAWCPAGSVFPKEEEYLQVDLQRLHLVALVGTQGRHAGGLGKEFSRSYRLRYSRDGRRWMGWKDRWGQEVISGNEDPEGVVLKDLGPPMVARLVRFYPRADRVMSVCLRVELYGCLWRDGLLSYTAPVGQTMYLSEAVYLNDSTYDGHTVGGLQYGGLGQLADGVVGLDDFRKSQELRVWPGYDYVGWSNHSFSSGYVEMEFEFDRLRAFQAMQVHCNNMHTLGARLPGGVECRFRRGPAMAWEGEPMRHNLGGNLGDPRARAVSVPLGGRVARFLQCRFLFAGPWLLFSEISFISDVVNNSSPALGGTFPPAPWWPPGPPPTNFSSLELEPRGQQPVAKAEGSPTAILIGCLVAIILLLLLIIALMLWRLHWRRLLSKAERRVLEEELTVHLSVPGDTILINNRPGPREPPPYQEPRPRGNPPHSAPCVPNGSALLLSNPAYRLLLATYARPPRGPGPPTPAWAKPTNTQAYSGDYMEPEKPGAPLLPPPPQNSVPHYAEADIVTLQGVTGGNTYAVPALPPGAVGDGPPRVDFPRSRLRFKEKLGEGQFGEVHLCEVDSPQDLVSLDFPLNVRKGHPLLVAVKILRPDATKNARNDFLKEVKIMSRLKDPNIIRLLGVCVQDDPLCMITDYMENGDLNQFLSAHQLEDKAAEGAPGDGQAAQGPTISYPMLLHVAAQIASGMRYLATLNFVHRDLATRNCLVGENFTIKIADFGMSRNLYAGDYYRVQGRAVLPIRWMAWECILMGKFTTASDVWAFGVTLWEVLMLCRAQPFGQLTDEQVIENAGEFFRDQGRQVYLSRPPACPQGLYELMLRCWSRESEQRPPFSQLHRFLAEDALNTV
# [9] = biological target: T5, human DDR2 stably expressed on HEK293 cells (human, UniProt Q16832 22-855); test: flow cytometry, HEK293/hDDR2
# T5 construct: whole, on cells; also called hDDR2
# T5 sequence (looked up): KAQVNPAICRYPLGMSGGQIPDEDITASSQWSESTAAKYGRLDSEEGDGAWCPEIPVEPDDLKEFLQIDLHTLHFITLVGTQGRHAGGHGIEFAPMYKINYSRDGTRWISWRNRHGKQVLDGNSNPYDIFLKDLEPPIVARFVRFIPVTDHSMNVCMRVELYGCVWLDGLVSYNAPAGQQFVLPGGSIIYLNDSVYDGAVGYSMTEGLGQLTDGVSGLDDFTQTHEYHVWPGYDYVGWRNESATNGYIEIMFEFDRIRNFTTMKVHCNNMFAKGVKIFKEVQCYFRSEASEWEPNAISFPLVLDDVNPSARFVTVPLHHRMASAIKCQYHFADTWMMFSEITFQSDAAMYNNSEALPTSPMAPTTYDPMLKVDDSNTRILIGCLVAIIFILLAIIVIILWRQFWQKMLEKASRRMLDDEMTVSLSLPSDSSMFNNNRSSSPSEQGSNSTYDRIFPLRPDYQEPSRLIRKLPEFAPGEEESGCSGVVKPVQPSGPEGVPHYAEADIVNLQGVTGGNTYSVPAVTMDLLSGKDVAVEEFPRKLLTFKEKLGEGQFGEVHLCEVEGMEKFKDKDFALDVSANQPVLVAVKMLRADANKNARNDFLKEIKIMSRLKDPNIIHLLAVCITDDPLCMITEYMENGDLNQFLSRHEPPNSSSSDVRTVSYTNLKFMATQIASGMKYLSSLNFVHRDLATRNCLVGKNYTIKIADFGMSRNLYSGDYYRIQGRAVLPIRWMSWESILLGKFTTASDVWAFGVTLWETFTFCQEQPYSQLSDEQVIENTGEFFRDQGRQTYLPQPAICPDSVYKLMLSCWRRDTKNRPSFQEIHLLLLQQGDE
# Method: Additional monoclonal antibodies were obtained from individual hybridomas in Example 1 and were characterized for their properties.
# Cells were cultured in DMEM with 10% FBS and 0.8 mg/mL hygromycin. When cells reached 60-80% confluence, they were centrifuged at 1,200 rpm for 5 minutes, suspended in FACS buffer (1×PBS, 1% BSA), and aliquoted into a 96-well plate at 1×10⁶ cells per well. The anti-DDR1 monoclonal antibodies or appropriate isotype controls at 2 μg per 1×10⁶ cells were added and incubated at 4° C. for 1 hr. The cells were washed twice with FACS buffer then stained with the anti-IgG-PE secondary antibody at 10 μL per well at 4° C. for 1 hr. The cells were washed again and measured for the MFI values or signals using flow cytometry (LSR Fortessa instrument, BD Biosciences). Background MFI signals from vector-only cells (i.e. no DDR1 or DDR2 expression) was subtracted from those of the cells treated with antibodies. Higher MFI values or signals indicated increased binding or specificity of the anti-DDR1 antibodies to the DDR1 on the cell surface.
# [10] = biological target: DDR1 with a ProLink Tag (PK) in engineered U20S cells (DiscoveRx) (UniProt Q08345); test: cell-based or functional assay
# [11] = biological target: DDR1 endogenously expressed on human cancer cell lines (T47D, HCT-116, A431) (human) (UniProt Q08345); test: cell-based or functional assay; remark: listed apart in the source
Binder,"Mean EC50, DDR1 Tyr513 phosphorylation assay (U20S) [1] [nM]","EC50, DDR1 phospho-specific ELISA (T47D) [2] [nM]","EC50, cluster formation assay (A431 cells) [2] [nM]","Maximal inhibition, DDR1 phospho-specific ELISA (T47D) [2] [%]",MFI [3] [MFI],MFI [4] [MFI],MFI [5] [MFI],Kd [6] [nM],Kd [7] [nM],Kd (mouse ECD-DDR1-Fc) [nM],MFI [8] [MFI],MFI [9] [MFI],"Mean EC50, DDR1 Tyr513 phosphorylation assay (U20S) [10] [nM]","EC50, DDR1 phospho-specific ELISA (T47D) [11] [nM]","EC50, cluster formation assay (A431 cells) [11] [nM]","Maximal inhibition, DDR1 phospho-specific ELISA (T47D) [11] [%]",NPI of cluster formation at 66 nM (A431 cells) [11] [%]
"AB2080 (antibody, V domains shown, mouse hybridoma mAb) VH: EVQLQQSGPELVKPGASMKISCKASGYSFTGYTMTWVKQSHGKNLEWIGLINPYIGVTSYNQKFKGKATLTVDKSSSTAYMELLSLTSEDSAVYYCARLYDRGGRYAMDYWGQGTSVTVSS VL: QIVLTQSPAIMSASPGEKVPMTCSASSSVSFMHWYQQKSGTSPKRWIYDTSKLASGVPARFSGSGSGTSYSLTISNMEAEDAATYYCQQWNSDPWTFGGGSKL",2.2,4.67,1.24,100,1220,572,313,0.669,0.418,2.89,3140,,,,,,
"AB2061 (antibody, V domains shown, mouse hybridoma mAb) VH: EIQLQQSGPELVNPGASVKVSCKASGYSFTDYNMYWVKQSHGKSLEWIGYIDPYNGGTSYNQKFKGKATLTVDKSSSTAFMHLNSLTSEDSAVYYCAREYYGSRLWYFDVWGAGTAVTVSS VL: DIVMTQSPSSLAMSVGQKVTMSCKSSQSLLNRNNQKNYLAWYQQKPGQSPKLLVYFASTRESGVPDRFIGSGSGTDFTLTLSSVRAEDLAENFCQQHYSTPFTFGSGTRLEIKR",,,,,4620,1200,,0.418,0.391,28,7500,384,2.5,0.66,0.88,100,126
